The assay has as its target human Toll-like receptor 5, V5-tagged (hTLR5-V5) (human) (UniProt O60602).
Chain of UniProt O60602 (O60602 21-858): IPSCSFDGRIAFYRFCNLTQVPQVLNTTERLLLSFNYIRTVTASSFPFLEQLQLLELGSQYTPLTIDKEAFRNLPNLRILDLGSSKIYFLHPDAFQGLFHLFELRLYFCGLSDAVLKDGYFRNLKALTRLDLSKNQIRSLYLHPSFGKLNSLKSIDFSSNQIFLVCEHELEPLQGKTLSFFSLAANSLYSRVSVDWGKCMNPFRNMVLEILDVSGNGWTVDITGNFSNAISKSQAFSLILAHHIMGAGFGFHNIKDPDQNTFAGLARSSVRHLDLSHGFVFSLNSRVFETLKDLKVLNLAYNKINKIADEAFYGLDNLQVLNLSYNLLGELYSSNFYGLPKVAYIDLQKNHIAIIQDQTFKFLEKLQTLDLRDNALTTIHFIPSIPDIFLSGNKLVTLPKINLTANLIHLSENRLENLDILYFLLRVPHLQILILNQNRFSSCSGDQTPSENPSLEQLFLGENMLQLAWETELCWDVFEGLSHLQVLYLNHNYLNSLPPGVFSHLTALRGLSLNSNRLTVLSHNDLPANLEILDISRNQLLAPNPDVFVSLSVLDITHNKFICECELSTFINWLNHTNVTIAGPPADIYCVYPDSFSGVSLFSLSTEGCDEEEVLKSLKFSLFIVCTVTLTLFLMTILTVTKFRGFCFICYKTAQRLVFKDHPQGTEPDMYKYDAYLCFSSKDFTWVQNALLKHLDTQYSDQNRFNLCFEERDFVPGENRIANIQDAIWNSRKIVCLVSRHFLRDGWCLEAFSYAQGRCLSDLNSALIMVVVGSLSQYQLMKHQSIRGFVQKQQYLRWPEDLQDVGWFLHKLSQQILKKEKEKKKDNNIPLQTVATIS

The substance “Campylobacter jejuni FlaC, recombinant 6×His-FlaC–6×His (from UniProt P96747 1-249) (natural protein)” yielded an IL-10 mRNA (quantitative RT-PCR) in hTLR5-transfected HEK293 cells, against the hTLR5 control (data not shown) of 6 fold.
